Results as given in patent publication US20210388087A1 (Chugai, published 2021).

T1: Human CD3eg linker (human)
T1 construct: Single chain: epsilon and gamma subunits of human CD3 joined by a 29-mer linker, Flag-tag at the C-terminus; also called recombinant human CD3
T1 chain: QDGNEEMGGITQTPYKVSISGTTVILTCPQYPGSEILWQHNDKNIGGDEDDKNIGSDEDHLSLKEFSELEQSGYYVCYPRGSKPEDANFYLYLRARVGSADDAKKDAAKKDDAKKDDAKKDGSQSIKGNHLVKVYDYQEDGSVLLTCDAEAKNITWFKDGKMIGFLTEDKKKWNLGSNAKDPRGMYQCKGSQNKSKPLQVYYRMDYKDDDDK


Target: T1, Human CD3eg linker
Assay: Biacore SPR, vs template H183/L072

Binder | fold change of affinity [fold]
H183/L072 VH F27A (antibody, name in Kabat numbering, V domains shown) VH: QVQLVESGGGLVQPGRSLRLSCAASGATFSNAWMHWVRQAPGKGLEWVAQIKDKGNAYAAYYAPSVKGRFTISRDDSKNSIYLQMNSLKTEDTAVYYCHYVHYASASTVLPAFGVDAWGQGTTVTVSS VL: DIVMTQSPLSLPVTPGEPASISCQASQELVHMNRNTYLHWYQQKPGQAPRLLIYKVSNRFPGVPDRFSGSGSGTDFTLKISRVEAEDVGVYYCAQGTSVPFTFGQGTKLEIK | 0.2
H183/L072 VH F27M (antibody, name in Kabat numbering, V domains shown) VH: QVQLVESGGGLVQPGRSLRLSCAASGMTFSNAWMHWVRQAPGKGLEWVAQIKDKGNAYAAYYAPSVKGRFTISRDDSKNSIYLQMNSLKTEDTAVYYCHYVHYASASTVLPAFGVDAWGQGTTVTVSS VL: DIVMTQSPLSLPVTPGEPASISCQASQELVHMNRNTYLHWYQQKPGQAPRLLIYKVSNRFPGVPDRFSGSGSGTDFTLKISRVEAEDVGVYYCAQGTSVPFTFGQGTKLEIK | 0.5
H183/L072 VH F27K (antibody, name in Kabat numbering, V domains shown) VH: QVQLVESGGGLVQPGRSLRLSCAASGKTFSNAWMHWVRQAPGKGLEWVAQIKDKGNAYAAYYAPSVKGRFTISRDDSKNSIYLQMNSLKTEDTAVYYCHYVHYASASTVLPAFGVDAWGQGTTVTVSS VL: DIVMTQSPLSLPVTPGEPASISCQASQELVHMNRNTYLHWYQQKPGQAPRLLIYKVSNRFPGVPDRFSGSGSGTDFTLKISRVEAEDVGVYYCAQGTSVPFTFGQGTKLEIK | 0.3
H183/L072 VH F27H (antibody, name in Kabat numbering, V domains shown) VH: QVQLVESGGGLVQPGRSLRLSCAASGHTFSNAWMHWVRQAPGKGLEWVAQIKDKGNAYAAYYAPSVKGRFTISRDDSKNSIYLQMNSLKTEDTAVYYCHYVHYASASTVLPAFGVDAWGQGTTVTVSS VL: DIVMTQSPLSLPVTPGEPASISCQASQELVHMNRNTYLHWYQQKPGQAPRLLIYKVSNRFPGVPDRFSGSGSGTDFTLKISRVEAEDVGVYYCAQGTSVPFTFGQGTKLEIK | 0.1
H183/L072 VH F27L (antibody, name in Kabat numbering, V domains shown) VH: QVQLVESGGGLVQPGRSLRLSCAASGLTFSNAWMHWVRQAPGKGLEWVAQIKDKGNAYAAYYAPSVKGRFTISRDDSKNSIYLQMNSLKTEDTAVYYCHYVHYASASTVLPAFGVDAWGQGTTVTVSS VL: DIVMTQSPLSLPVTPGEPASISCQASQELVHMNRNTYLHWYQQKPGQAPRLLIYKVSNRFPGVPDRFSGSGSGTDFTLKISRVEAEDVGVYYCAQGTSVPFTFGQGTKLEIK | 0.4
H183/L072 VH F27D (antibody, name in Kabat numbering, V domains shown) VH: QVQLVESGGGLVQPGRSLRLSCAASGDTFSNAWMHWVRQAPGKGLEWVAQIKDKGNAYAAYYAPSVKGRFTISRDDSKNSIYLQMNSLKTEDTAVYYCHYVHYASASTVLPAFGVDAWGQGTTVTVSS VL: DIVMTQSPLSLPVTPGEPASISCQASQELVHMNRNTYLHWYQQKPGQAPRLLIYKVSNRFPGVPDRFSGSGSGTDFTLKISRVEAEDVGVYYCAQGTSVPFTFGQGTKLEIK | 0
H183/L072 VH F27G (antibody, name in Kabat numbering, V domains shown) VH: QVQLVESGGGLVQPGRSLRLSCAASGGTFSNAWMHWVRQAPGKGLEWVAQIKDKGNAYAAYYAPSVKGRFTISRDDSKNSIYLQMNSLKTEDTAVYYCHYVHYASASTVLPAFGVDAWGQGTTVTVSS VL: DIVMTQSPLSLPVTPGEPASISCQASQELVHMNRNTYLHWYQQKPGQAPRLLIYKVSNRFPGVPDRFSGSGSGTDFTLKISRVEAEDVGVYYCAQGTSVPFTFGQGTKLEIK | 0.5
H183/L072 VH F27I (antibody, name in Kabat numbering, V domains shown) VH: QVQLVESGGGLVQPGRSLRLSCAASGITFSNAWMHWVRQAPGKGLEWVAQIKDKGNAYAAYYAPSVKGRFTISRDDSKNSIYLQMNSLKTEDTAVYYCHYVHYASASTVLPAFGVDAWGQGTTVTVSS VL: DIVMTQSPLSLPVTPGEPASISCQASQELVHMNRNTYLHWYQQKPGQAPRLLIYKVSNRFPGVPDRFSGSGSGTDFTLKISRVEAEDVGVYYCAQGTSVPFTFGQGTKLEIK | 0.6
H183/L072 VH F27N (antibody, name in Kabat numbering, V domains shown) VH: QVQLVESGGGLVQPGRSLRLSCAASGNTFSNAWMHWVRQAPGKGLEWVAQIKDKGNAYAAYYAPSVKGRFTISRDDSKNSIYLQMNSLKTEDTAVYYCHYVHYASASTVLPAFGVDAWGQGTTVTVSS VL: DIVMTQSPLSLPVTPGEPASISCQASQELVHMNRNTYLHWYQQKPGQAPRLLIYKVSNRFPGVPDRFSGSGSGTDFTLKISRVEAEDVGVYYCAQGTSVPFTFGQGTKLEIK | 0.4
H183/L072 VH F27E (antibody, name in Kabat numbering, V domains shown) VH: QVQLVESGGGLVQPGRSLRLSCAASGETFSNAWMHWVRQAPGKGLEWVAQIKDKGNAYAAYYAPSVKGRFTISRDDSKNSIYLQMNSLKTEDTAVYYCHYVHYASASTVLPAFGVDAWGQGTTVTVSS VL: DIVMTQSPLSLPVTPGEPASISCQASQELVHMNRNTYLHWYQQKPGQAPRLLIYKVSNRFPGVPDRFSGSGSGTDFTLKISRVEAEDVGVYYCAQGTSVPFTFGQGTKLEIK | 0

More lines, now with the values ahead:

fold change of affinity [fold] | Binder
0 | H183/L072 VH F27Q (antibody, name in Kabat numbering, V domains shown) VH: QVQLVESGGGLVQPGRSLRLSCAASGQTFSNAWMHWVRQAPGKGLEWVAQIKDKGNAYAAYYAPSVKGRFTISRDDSKNSIYLQMNSLKTEDTAVYYCHYVHYASASTVLPAFGVDAWGQGTTVTVSS VL: DIVMTQSPLSLPVTPGEPASISCQASQELVHMNRNTYLHWYQQKPGQAPRLLIYKVSNRFPGVPDRFSGSGSGTDFTLKISRVEAEDVGVYYCAQGTSVPFTFGQGTKLEIK
0 | H183/L072 VH F27S (antibody, name in Kabat numbering, V domains shown) VH: QVQLVESGGGLVQPGRSLRLSCAASGSTFSNAWMHWVRQAPGKGLEWVAQIKDKGNAYAAYYAPSVKGRFTISRDDSKNSIYLQMNSLKTEDTAVYYCHYVHYASASTVLPAFGVDAWGQGTTVTVSS VL: DIVMTQSPLSLPVTPGEPASISCQASQELVHMNRNTYLHWYQQKPGQAPRLLIYKVSNRFPGVPDRFSGSGSGTDFTLKISRVEAEDVGVYYCAQGTSVPFTFGQGTKLEIK
0.2 | H183/L072 VH F27R (antibody, name in Kabat numbering, V domains shown) VH: QVQLVESGGGLVQPGRSLRLSCAASGRTFSNAWMHWVRQAPGKGLEWVAQIKDKGNAYAAYYAPSVKGRFTISRDDSKNSIYLQMNSLKTEDTAVYYCHYVHYASASTVLPAFGVDAWGQGTTVTVSS VL: DIVMTQSPLSLPVTPGEPASISCQASQELVHMNRNTYLHWYQQKPGQAPRLLIYKVSNRFPGVPDRFSGSGSGTDFTLKISRVEAEDVGVYYCAQGTSVPFTFGQGTKLEIK
0 | H183/L072 VH F27Y (antibody, name in Kabat numbering, V domains shown) VH: QVQLVESGGGLVQPGRSLRLSCAASGYTFSNAWMHWVRQAPGKGLEWVAQIKDKGNAYAAYYAPSVKGRFTISRDDSKNSIYLQMNSLKTEDTAVYYCHYVHYASASTVLPAFGVDAWGQGTTVTVSS VL: DIVMTQSPLSLPVTPGEPASISCQASQELVHMNRNTYLHWYQQKPGQAPRLLIYKVSNRFPGVPDRFSGSGSGTDFTLKISRVEAEDVGVYYCAQGTSVPFTFGQGTKLEIK
0.3 | H183/L072 VH F27V (antibody, name in Kabat numbering, V domains shown) VH: QVQLVESGGGLVQPGRSLRLSCAASGVTFSNAWMHWVRQAPGKGLEWVAQIKDKGNAYAAYYAPSVKGRFTISRDDSKNSIYLQMNSLKTEDTAVYYCHYVHYASASTVLPAFGVDAWGQGTTVTVSS VL: DIVMTQSPLSLPVTPGEPASISCQASQELVHMNRNTYLHWYQQKPGQAPRLLIYKVSNRFPGVPDRFSGSGSGTDFTLKISRVEAEDVGVYYCAQGTSVPFTFGQGTKLEIK
0.2 | H183/L072 VH F29A (antibody, name in Kabat numbering, V domains shown) VH: QVQLVESGGGLVQPGRSLRLSCAASGFTASNAWMHWVRQAPGKGLEWVAQIKDKGNAYAAYYAPSVKGRFTISRDDSKNSIYLQMNSLKTEDTAVYYCHYVHYASASTVLPAFGVDAWGQGTTVTVSS VL: DIVMTQSPLSLPVTPGEPASISCQASQELVHMNRNTYLHWYQQKPGQAPRLLIYKVSNRFPGVPDRFSGSGSGTDFTLKISRVEAEDVGVYYCAQGTSVPFTFGQGTKLEIK
0 | H183/L072 VH F29D (antibody, name in Kabat numbering, V domains shown) VH: QVQLVESGGGLVQPGRSLRLSCAASGFTDSNAWMHWVRQAPGKGLEWVAQIKDKGNAYAAYYAPSVKGRFTISRDDSKNSIYLQMNSLKTEDTAVYYCHYVHYASASTVLPAFGVDAWGQGTTVTVSS VL: DIVMTQSPLSLPVTPGEPASISCQASQELVHMNRNTYLHWYQQKPGQAPRLLIYKVSNRFPGVPDRFSGSGSGTDFTLKISRVEAEDVGVYYCAQGTSVPFTFGQGTKLEIK
0 | H183/L072 VH F27T (antibody, name in Kabat numbering, V domains shown) VH: QVQLVESGGGLVQPGRSLRLSCAASGTTFSNAWMHWVRQAPGKGLEWVAQIKDKGNAYAAYYAPSVKGRFTISRDDSKNSIYLQMNSLKTEDTAVYYCHYVHYASASTVLPAFGVDAWGQGTTVTVSS VL: DIVMTQSPLSLPVTPGEPASISCQASQELVHMNRNTYLHWYQQKPGQAPRLLIYKVSNRFPGVPDRFSGSGSGTDFTLKISRVEAEDVGVYYCAQGTSVPFTFGQGTKLEIK
0 | H183/L072 VH F27P (antibody, name in Kabat numbering, V domains shown) VH: QVQLVESGGGLVQPGRSLRLSCAASGPTFSNAWMHWVRQAPGKGLEWVAQIKDKGNAYAAYYAPSVKGRFTISRDDSKNSIYLQMNSLKTEDTAVYYCHYVHYASASTVLPAFGVDAWGQGTTVTVSS VL: DIVMTQSPLSLPVTPGEPASISCQASQELVHMNRNTYLHWYQQKPGQAPRLLIYKVSNRFPGVPDRFSGSGSGTDFTLKISRVEAEDVGVYYCAQGTSVPFTFGQGTKLEIK
0 | H183/L072 VH F27W (antibody, name in Kabat numbering, V domains shown) VH: QVQLVESGGGLVQPGRSLRLSCAASGWTFSNAWMHWVRQAPGKGLEWVAQIKDKGNAYAAYYAPSVKGRFTISRDDSKNSIYLQMNSLKTEDTAVYYCHYVHYASASTVLPAFGVDAWGQGTTVTVSS VL: DIVMTQSPLSLPVTPGEPASISCQASQELVHMNRNTYLHWYQQKPGQAPRLLIYKVSNRFPGVPDRFSGSGSGTDFTLKISRVEAEDVGVYYCAQGTSVPFTFGQGTKLEIK
